From the supplement of paper PMC12042874
± gives the uncertainty stated by the source.

Experiment: amyloid nucleation score (Sup35N fusion, yeast selection) (log enrichment); library NNK3; higher = more nucleation; inactive = no reads after selection
Method in brief: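 After 24 hours of induction with 100 μM copper sulfate, psi-negative yeast expressing peptides of 20 random codons fused to Sup35N were grown for 7 days at 30°C on medium lacking adenine and uracil. Input and output plasmid inserts were sequenced with Illumina, and sequences with under 100 input reads were discarded. Scores for nucleation are the DiMSum log enrichment of output over input reads, centred on the mode score of non-aggregating sequences.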

MWSVLIRSTIDYAVPNWSRF
amyloid nucleation score: inactive

MWWGWKRFHSMRNYDAYIQM
amyloid nucleation score: inactive

MYKFCSY
amyloid nucleation score: inactive

MYNSTLSWRL
amyloid nucleation score: inactive

MYPLTVWIVLRLGDSFLK
amyloid nucleation score: inactive

MYQLLMFAYVT
amyloid nucleation score: inactive

MYQVDMMLCTITDWVGSNWY
amyloid nucleation score: 0.666 ± 0.27

MYREFYLNDQFNRPFPQSMD
amyloid nucleation score: inactive

MYRITQGHLR
amyloid nucleation score: inactive

MYSMVGNLTRSWEGIGLGLM
amyloid nucleation score: inactive

MYTTDYVYRVLVSHFRVPRM
amyloid nucleation score: inactive

NAFICGSRYQVVKDSDDHCM
amyloid nucleation score: inactive

NAGYCVRTRSLGESLSIVRK
amyloid nucleation score: inactive

NALLAFPYQGSMHKCGLGRY
amyloid nucleation score: inactive

NASCGDNVLLYLFKMTFCLG
amyloid nucleation score: 0.139 ± 0.25

NCHSFVYYSMLGVSLSISGN
amyloid nucleation score: 2.29 ± 0.059

NCRLEESGLVTVNCVGYWWD
amyloid nucleation score: inactive

NCVYVLESD
amyloid nucleation score: -0.075 ± 0.32

NCYRRTLHSSWREWIWPIGC
amyloid nucleation score: -0.062 ± 0.82

NDFLDVGSVSSYVNTQLPMS
amyloid nucleation score: -0.086 ± 0.8

NDVPLDRQLVDGYIASARFG
amyloid nucleation score: inactive

NEIQVKQRYVPPVSVSFVWW
amyloid nucleation score: 1.59 ± 0.086

NELCLVMIKKDVSMRVWLES
amyloid nucleation score: inactive

NELCVTFLGCRPYVPA
amyloid nucleation score: -0.469 ± 1.1

NEMHFLS
amyloid nucleation score: inactive

NEMQQYSHAPSPSVVWNAGF
amyloid nucleation score: inactive

NESHILPVVVMDCLRTFPTE
amyloid nucleation score: inactive

NESLIKVCSALILRKNMCGP
amyloid nucleation score: inactive

NFATRDNWYRVTQTLEDWIK
amyloid nucleation score: inactive

NFHQMW
amyloid nucleation score: inactive

NFIALSLFKLVCSAEICWLN
amyloid nucleation score: 0.617 ± 0.39

NFLVVSNRYLYMVPNGHIKL
amyloid nucleation score: 2.96 ± 0.051

NFRCDICLPNLTRY
amyloid nucleation score: 0.313 ± 0.16

NFSETSAKYHVTSRGFSSSR
amyloid nucleation score: 0.456 ± 0.21

NFVDVRIKFTLTADLGHNSG
amyloid nucleation score: 0.756 ± 0.21

NFVGTICLCLSYYVSVNSCC
amyloid nucleation score: inactive

NGFLNSINGTVMVQGYSTAF
amyloid nucleation score: inactive

NGFSTVTSSPGLCFLYRMFI
amyloid nucleation score: inactive

NGIMLQIRNPSSKLNNLLWF
amyloid nucleation score: inactive

NGLPVLLEEDLS
amyloid nucleation score: inactive

NGSIILICLVYVGLRCLWFL
amyloid nucleation score: inactive

NGWRCLTVWDLSLYHWGYFL
amyloid nucleation score: inactive

NHESVVWDMNGHPSPVGRGE
amyloid nucleation score: inactive

NHGNSDEKTFPTMEN
amyloid nucleation score: inactive

NICMAI
amyloid nucleation score: inactive

NIFNCDRGSFFLLYRGIGFY
amyloid nucleation score: inactive

NIIYYTTVGHVHSVW
amyloid nucleation score: 1.04 ± 0.18

NIKFIEHLLSYSSTPQPLTC
amyloid nucleation score: inactive

NILKKLNVRNHFLVLMKKHM
amyloid nucleation score: inactive

NILRTRSRF
amyloid nucleation score: inactive

NISFFTHLVSYRPTVRSSD
amyloid nucleation score: 1.24 ± 0.14

NIWLP
amyloid nucleation score: inactive

NKDFGFSYIRTFPRILKVW
amyloid nucleation score: inactive

NKFFDI
amyloid nucleation score: inactive

NKFKHESNTNYIPSRQYKVW
amyloid nucleation score: inactive

NKMDSKYPGRLCLMWGW
amyloid nucleation score: 0.48 ± 0.19

NKPGVV
amyloid nucleation score: inactive

NKSLKLMYFSRDYFKDSRLN
amyloid nucleation score: inactive

NKVPVGG
amyloid nucleation score: inactive

NKVSWIFNDSKGQGSV
amyloid nucleation score: -0.291 ± 1.3

NLASCFVSIVEGSHFVYC
amyloid nucleation score: 1.9 ± 0.1

NLDIWNLRQWSGVVYLV
amyloid nucleation score: 0.751 ± 0.14

NLFSRLRYSLSAFQIWRLSV
amyloid nucleation score: inactive

NLGLLKAVYCVG
amyloid nucleation score: inactive

NLINTVKYLNFDGLTAFSSQ
amyloid nucleation score: inactive

NLKNYVFWREILSYVSDPWD
amyloid nucleation score: inactive

NLLSDSVDMYINAGVDILLA
amyloid nucleation score: inactive

NLNKNRLLMTMHWNRVFLMS
amyloid nucleation score: inactive

NLNYRLADSCLNSVLDRLGQ
amyloid nucleation score: inactive

NLSNIFQSNMYVTRSVNGVR
amyloid nucleation score: 1.68 ± 0.084

NLSVAMRLICVTLFLVLLGI
amyloid nucleation score: inactive

NLSWVLAILCCGL
amyloid nucleation score: 1.39 ± 0.15

NLTQFYWSCGEVRVTAFYGA
amyloid nucleation score: 2.08 ± 0.079

NLTYNTSYAVVDVLRITCNF
amyloid nucleation score: 2.56 ± 0.065

NLVSNMVSNAKVDVVVWHVQ
amyloid nucleation score: 0.209 ± 0.54

NLWTTGIRTSPKNLYIVAFM
amyloid nucleation score: inactive

NLWVEGRKAQENMDPDARSR
amyloid nucleation score: inactive

NMALLEYDSMSFICRYRNRP
amyloid nucleation score: inactive

NMNSISYSQPIFRSRTRRRM
amyloid nucleation score: inactive

NMTHLFMVCAKVSMPSGDGG
amyloid nucleation score: inactive

NMYWSISDRFRIV
amyloid nucleation score: 0.424 ± 0.71

NNDMCLYLTGRRFKG
amyloid nucleation score: inactive

NNLFELPWKFYEQRNVAELM
amyloid nucleation score: inactive

NNLMLV
amyloid nucleation score: inactive

NNLTEEEMDLAPTVSHYLYK
amyloid nucleation score: inactive

NNLVPYLVWYCVTRNKTNGN
amyloid nucleation score: inactive

NNNPVGILQNSCVGVIFNHS
amyloid nucleation score: -0.517 ± 1

NNRDDK
amyloid nucleation score: inactive

NNRLRGHF
amyloid nucleation score: inactive

NPECVGDAWTVVVDYTSLWE
amyloid nucleation score: inactive

NPKLG
amyloid nucleation score: inactive

NPPKDGYMLTWIIYDRKAGT
amyloid nucleation score: inactive

NQCPIRYLWL
amyloid nucleation score: 1.43 ± 0.11

NQEVSTGNILGLLAVTSCRD
amyloid nucleation score: inactive

NQQWISTRVVLKAPAFERRT
amyloid nucleation score: inactive

NQVMKSNVVYYKATVNNMCF
amyloid nucleation score: 2.09 ± 0.071

NRFYVD
amyloid nucleation score: inactive

NRIFSLTM
amyloid nucleation score: inactive

NRIFSVCECMVYGICECVCR
amyloid nucleation score: inactive

NRNRYMFLITITHY
amyloid nucleation score: inactive

NRSTWCW
amyloid nucleation score: inactive

NRTFNYNIQNVGSSWEL
amyloid nucleation score: 0.233 ± 0.19

NRTQRISWIWVLTPSDVLVS
amyloid nucleation score: inactive

NSCLRLSSHRMMFLAIAVTC
amyloid nucleation score: inactive

NSCYFFNLHYVYHETANCFI
amyloid nucleation score: 3.2 ± 0.068

NSDSFML
amyloid nucleation score: inactive

NSETRRIHSKVKLMLIVRLA
amyloid nucleation score: inactive

NSFDCVRDWLPLIF
amyloid nucleation score: inactive

NSFMCCRSWDTN
amyloid nucleation score: 2.71 ± 0.069

NSFVASEFKRLYRQWSRVHE
amyloid nucleation score: inactive

NSGDGSGVRFYSDNMDTYMA
amyloid nucleation score: 0.185 ± 0.88

NSGWWRVKHNTSQDGSKRSG
amyloid nucleation score: inactive

NSGYRWEKSLSWMALLGYGC
amyloid nucleation score: -0.788 ± 1.1

NSGYVYGIQCNVWVLAFMGF
amyloid nucleation score: 2.7 ± 0.068

NSKGMLCWLTA
amyloid nucleation score: inactive

NSNCYPLVI
amyloid nucleation score: inactive

NSNDRK
amyloid nucleation score: inactive

NSNNSGTVKFRNIRLYSTSL
amyloid nucleation score: inactive

NSSEGDDY
amyloid nucleation score: inactive

NSTDRGLEFRTDHYHT
amyloid nucleation score: inactive

NSTKLKPYWGPG
amyloid nucleation score: inactive

NSTNMDSFGIPLNRILWMLN
amyloid nucleation score: inactive

NSVRLCRCEVIGQTIRDHGF
amyloid nucleation score: inactive

NSYFKPVKSCNLQLGEVTLQ
amyloid nucleation score: inactive

NTAPNISRSVIVCYYDDGEK
amyloid nucleation score: inactive

NTAYHKRRGW
amyloid nucleation score: -0.004 ± 0.71

NTFVPVLVFGFYYVLIMISN
amyloid nucleation score: inactive

NTGWSF
amyloid nucleation score: inactive

NTHNNIGGRYAKYGWLMRSK
amyloid nucleation score: inactive

NTIDYHYKVSCSHGYSLQSY
amyloid nucleation score: inactive

NTPVGLINYSGDTWLMAIRW
amyloid nucleation score: inactive

NVAFQCQKLTLLKGKLEPDR
amyloid nucleation score: 0.272 ± 0.93

NVAGM
amyloid nucleation score: inactive

NVGMSKNVFGM
amyloid nucleation score: inactive

NVIISQA
amyloid nucleation score: inactive

NVKTGNKPRDTQSRYVLPES
amyloid nucleation score: inactive

NVLCSFYLMYGLTSAWSVS
amyloid nucleation score: inactive

NVLCSVRC
amyloid nucleation score: inactive

NVLKSRIGRFIMQIWYTNKW
amyloid nucleation score: inactive

NVRGDSRA
amyloid nucleation score: inactive

NVSFCDDASARANVYHLGKS
amyloid nucleation score: inactive

NVVCSTARIEKPMGVLCFMF
amyloid nucleation score: 1.92 ± 0.092

NWDRGLTCHMYRFSNWRWGS
amyloid nucleation score: inactive

NWLMSTTFRAYGV
amyloid nucleation score: inactive

NWLSMQRTLFWP
amyloid nucleation score: -0.38 ± 0.5

NWYVECYITYSLVLYLANDS
amyloid nucleation score: 1.69 ± 0.066

NYEARLSG
amyloid nucleation score: inactive

NYFYGYQACVVHGISFTMGQ
amyloid nucleation score: 0.956 ± 0.19

NYLLEEEYMISCIEAITLQP
amyloid nucleation score: -0.345 ± 0.82

NYLYPKLITYYLTSGLRWII
amyloid nucleation score: inactive

NYVMRILILCSNGWLGRECV
amyloid nucleation score: inactive

NYVTLKSKGITMSWLLLDYR
amyloid nucleation score: inactive

PAERYKRSSLAKSYRLNYRS
amyloid nucleation score: inactive

PAQSQAYVLKAGGPRLDGRV
amyloid nucleation score: inactive

PCILPKRTRIIVR
amyloid nucleation score: inactive

PCLSDPSYIELNKLASVFTG
amyloid nucleation score: inactive

PCSYLCSRVFIIC
amyloid nucleation score: inactive

PCTMDESRYLVMYFHFPMSV
amyloid nucleation score: inactive

PCYDWCLQSGR
amyloid nucleation score: inactive

PDAHTKMT
amyloid nucleation score: 0.603 ± 0.27
